Assay results published in IntAct's records for PubMed 8137824.

B1: Mating-type protein ALPHA2 (Saccharomyces cerevisiae), P0CY08 (parent)
chain: MNKIPIKDLLNPQITDEFKSSILDINKKLFSICCNLPKLPESVTTEEEVELRDILGFLSRANKNRKISDEEKKLLQTTSQLTTTITVLLKEMRSIENDRSNYQLTQKNKSADGLVFNVVTQDMINKSTKPYRGHRFTKENVRILESWFAKNIENPYLDTKGLENLMKNTSLSRIQIKNWVSNRRRKEKTITIAPELADLLSGEPLAKKKE
partner: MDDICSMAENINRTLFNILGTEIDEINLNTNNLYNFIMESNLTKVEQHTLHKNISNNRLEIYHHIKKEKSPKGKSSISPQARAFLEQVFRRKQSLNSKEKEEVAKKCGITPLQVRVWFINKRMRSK

Variants of: B1
Settings: with mata1_yeasx MATA1, P0CY10

Variant	effect of a mutation on the interaction
I67A;L74A;L81A;L88A	disrupting interaction strength
